Experiment [1] concerns the target PD-L1 protein on 4T1 cells (programmed cell death ligand-1) (mouse (endogenous in 4T1)) (UniProt Q9EP73).
Experiment [2] shares this target. As to the kind of experiment: radioligand binding; competition on 4T1 cells adhered to 96-well plates, 37 °C, 1 h; [18F]AlF-NOTA-iPD-L1 constant at 1 ng/20 kBq; unlabeled peptides 10 to 0.00001 mM; washed with pH 7.4 buffer (0.1% BSA, 25 mM Tris-HCl, 1 mM CaCl2, 120 mM NaCl); corrected for non-specific binding with …; n = 3.

Chain of UniProt Q9EP73 (Q9EP73 19-290): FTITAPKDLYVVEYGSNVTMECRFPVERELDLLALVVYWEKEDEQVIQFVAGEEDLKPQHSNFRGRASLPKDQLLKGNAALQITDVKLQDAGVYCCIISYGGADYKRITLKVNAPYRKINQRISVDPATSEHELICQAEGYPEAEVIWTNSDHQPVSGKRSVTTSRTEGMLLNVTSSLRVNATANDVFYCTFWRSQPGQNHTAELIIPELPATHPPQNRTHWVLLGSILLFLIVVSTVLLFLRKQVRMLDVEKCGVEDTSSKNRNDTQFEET

In experiment [1], [18F]AlF-NOTA-iPD-L1 (peptide) gave a tumor uptake at 1 h in mice with 4T1 tumors that received a blocking dose of cold iPD-L1 30 min before (% ID/g) of 1.81 % ID/g; a tumor uptake in mice with induced PD-L1-positive 4T1 tumors, 1, 2 and 3 h after injection (% ID/g) of 6.54 % ID/g.

As usually defined, the IC50 is the concentration that inhibits the measured activity by half. The low end stands for greater potency in that assay, the high end for weaker potency in that assay. With AlCl-NOTA-iPD-L1 (peptide), in experiment [2], the IC50 is 9.27 nM.

Turning to WL12 (peptide), in experiment [2], the IC50 is 6.08 nM.

The record behind these values is PMC12298754.
